In publication PMC9637144:

Molecular target: human IGF1R ectodomain (Δβ mutant) (human) (UniProt P08069)
Assay: radioligand binding

For “human IGF-1 (unlabeled) (from UniProt P05019 49-118) (ligand)”, the IC50 was 400 pM.
